Laboratory results reported in the supplement of paper PMC12667976.
± gives the standard error.

B1: library; numbered along this chain (parent)
chain: MATDAALRRLLRLHRTEIAVAVDSAFPLLHALADHDVVPEDKFQETLHLKEKEGCPQAFHALLSWLLTQDSTAILDFWRVLFKDYNLERYGRLQPILDSFPKDVDLSQPRKGRKPPAVPKALVPPPRLPTKRKASEEARAAAPAALTPRGTASPGSQLKAKPPKKPESSAEQQRLPLGNGIQTMSASVQRAVAMSSGDVPGARGAVEGILIQQVFESGGSKKCIQVGGEFYTPSKFEDSGSGKNKARSSSGPKPLVRAKGAQGAAPGGGEARLGQQGSVPAPLALPSDPQLHQKNEDECAVCRDGGELICCDGCPRAFHLACLSPPLREIPSGTWRCSSCLQATVQEVQPRAEEPRPQEPPVETPLPPGLRSAGEEVRGPPGEPLAGMDTTLVYKHLPAPPSAAPLPGLDSSALHPLLCVGPEGQQNLAPGARCGVCGDGTDVLRCTHCAAAFHWRCHFPAGTSRPGTGLRCRSCSGDVTPAPVEGVLAPSPARLAPGPAKDDTASHEPALHRDDLESLLSEHTFDGILQWAIQSMARPAAPFPS

Variants of: B1
Assay: AIRE transcriptional activation functional score (insulin promoter-GFP; nonsense median 0, synonymous median 1) (normalised score); higher = higher AIRE activity (more reporter activation)
Settings: with insulin promoter-GFP reporter in HEK293
Summary of the method: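 Functional scores come from comparing select with non-select enrichment of each variant and subtracting wild type. Codon-optimized AIRE NNN-codon libraries across three regions were integrated via Bxb1 recombinase into HEK293 landing-pad cells with an insulin core promoter-GFP reporter, and integrants sorted at day 7 were expanded 7 days before top 10% GFP and unselected populations were tile-sequenced. Variants needed 10 counts per million in non-select, and values were rescaled to nonsense median 0 and synonymous median 1 before averaging over biological replicates.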

| Variant | AIRE transcriptional activation functional score |
| --- | --- |
| A510M | 1.37 ± 0.095 |
| A510H | 0.605 ± 0.23 |
| A510G | 0.977 ± 0.22 |
| A510K | 0.165 ± 0.099 |
| A510T | 0.933 ± 0.29 |
| A510C | 1.24 ± 0.065 |
| A510V | 1.09 ± 0.28 |
| A510Y | 0.861 ± 0.11 |
| A510W | 0.663 ± 0.12 |
| A510I | -0.237 ± 0.11 |
| A510F | 0.578 ± 0.11 |
| A510S | 0.921 ± 0.32 |
| A510R | 0.323 ± 0.16 |
| A510P | 1.35 ± 0.16 |
| A510Q | 0.851 ± 1.1 |
| A510E | 1.33 ± 0.12 |
| A510L | 1.04 ± 0.12 |
| P509V | 1.14 ± 0.23 |
| P509N | 0.827 ± 0.43 |
| P509S | 1.16 ± 0.17 |
| P509W | 0.591 ± 0.033 |
| P509Q | 1.12 ± 0.14 |
| P509F | 1.17 ± 0.056 |
| P509I | 1.21 ± 0.37 |

| Variant | AIRE transcriptional activation functional score |
| --- | --- |
| P509L | 0.827 ± 0.28 |
| P509E | 1.16 ± 0.23 |
| P509R | 0.805 ± 0.16 |
| P509T | 0.871 ± 0.34 |
| P509C | 0.247 ± 0.038 |
| P509A | 0.736 ± 0.23 |
| P509K | 0.522 ± 0.078 |
| P509G | 1.11 ± 0.048 |
| P509Y | 1.11 ± 0.057 |
| P509H | 0.506 ± 0.064 |
| P509M | 1.65 ± 0.075 |
| E508Y | 0.92 ± 0.16 |
| E508R | 0.154 ± 0.21 |
| E508V | 0.577 ± 0.22 |
| E508S | 0.0376 ± 0.27 |
| E508W | 0.888 ± 0.048 |
| E508T | 0.822 ± 0.21 |
| E508P | 0.813 ± 0.033 |
| E508Q | 1.03 ± 0.18 |
| D515T | 0.0981 ± 0.33 |
| D515R | -0.0862 ± 0.14 |
| D515A | -0.0405 ± 0.13 |
| D515N | 0.626 ± 0.15 |
| D515I | 0.101 ± 0.18 |

| Variant | AIRE transcriptional activation functional score |
| --- | --- |
| D515F | 0.156 ± 0.1 |
| D515C | 0.503 ± 0.096 |
| D515W | -0.15 ± 0.044 |
| D515H | 0.453 ± 0.15 |
| D515K | -0.501 ± 0.17 |
| D515S | 0.474 ± 0.19 |
| D515M | -0.0216 ± 0.062 |
| D515V | 0.106 ± 0.15 |
| D515P | 0.67 ± 0.093 |
| D515L | -0.215 ± 0.35 |
| D515Y | 0.405 ± 0.039 |
| D515E | 1.18 ± 0.15 |
| D515Q | 0.723 ± 0.15 |
| D515G | 0.421 ± 0.14 |
| D514M | 0.515 ± 0.075 |
| D514Y | 0.351 ± 0.055 |
| D514H | 0.52 ± 0.14 |
| D514P | -0.178 ± 0.11 |
| D514A | 0.214 ± 0.078 |
| D514C | 0.246 ± 0.18 |
| D514G | 0.3 ± 0.27 |
| D514N | 0.242 ± 0.062 |
| D514T | 0.26 ± 0.081 |
| D514E | 0.931 ± 0.14 |

| Variant | AIRE transcriptional activation functional score |
| --- | --- |
| D514S | 0.341 ± 0.15 |
| D514L | 0.0834 ± 0.22 |
| D514K | -0.0487 ± 0.099 |
| D514W | -0.252 ± 0.11 |
| D514V | 0.335 ± 0.26 |
| D514F | 0.299 ± 0.13 |
| D514I | -0.186 ± 0.15 |
| D514R | 0.191 ± 0.14 |
| D514Q | -0.128 ± 0.22 |
| E517I | 0.0464 ± 0.059 |
| E517V | 0.207 ± 0.098 |
| E517K | -0.0484 ± 0.1 |
| E517L | 0.0571 ± 0.083 |
| E517Q | 0.0484 ± 0.048 |
| E517H | 0.164 ± 0.15 |
| E517G | 0.693 ± 0.054 |
| E517A | -0.0659 ± 0.29 |
| E517Y | 0.524 ± 0.051 |
| E517R | 0.985 ± 0.12 |
| E517S | -0.144 ± 0.04 |
| E517D | 1.25 ± 0.16 |
| H512W | 1.06 ± 0.066 |
| H512A | 0.977 ± 0.23 |
| H512N | 1.02 ± 0.17 |

| Variant | AIRE transcriptional activation functional score |
| --- | --- |
| H512C | -0.3 ± 0.26 |
| H512V | 1.35 ± 0.069 |
| H512P | 1.09 ± 0.24 |
| H512D | 0.939 ± 0.065 |
| H512F | 1.21 ± 0.074 |
| H512G | 0.716 ± 0.23 |
| H512K | 0.572 ± 0.14 |
| H512Y | 0.777 ± 0.082 |
| H512T | 0.649 ± 0.32 |
| H512R | 0.445 ± 0.22 |
| H512I | 1.1 ± 0.11 |
| H512S | 0.923 ± 0.21 |
| H512L | 0.941 ± 0.28 |
| H512Q | 0.273 ± 0.4 |
| H512M | 0.439 ± 0.028 |
| L511T | 0.121 ± 0.18 |
| L511R | 0.813 ± 0.17 |
| L511A | 0.757 ± 0.46 |
| L511C | 0.201 ± 0.42 |
| L511Y | 1.19 ± 0.072 |
| L511Q | 0.142 ± 0.15 |
| L511F | 0.864 ± 0.28 |
| L511G | 0.805 ± 0.27 |
| L511S | 0.682 ± 0.32 |

| Variant | AIRE transcriptional activation functional score |
| --- | --- |
| L511M | 0.699 ± 0.14 |
| L511W | 1.02 ± 0.11 |
| L511V | 0.838 ± 0.41 |
| L511K | -0.311 ± 0.054 |
| L511P | 0.736 ± 0.18 |
| L511H | 0.98 ± 0.25 |
| L511I | 0.739 ± 0.12 |
| S518F | 1.2 ± 0.074 |
| S518G | 0.666 ± 0.1 |
| S518A | 0.775 ± 0.32 |
| S518H | 0.981 ± 0.25 |
| S518C | 0.672 ± 0.18 |
| R513F | 1.18 ± 0.22 |
| R513E | -0.344 ± 0.066 |
| R513G | -0.188 ± 0.48 |
| R513K | 0.902 ± 0.11 |
| R513L | 0.882 ± 0.31 |
| R513P | 0.55 ± 0.85 |
| R513N | 0.0982 ± 0.068 |
| R513C | 0.777 ± 0.16 |
| R513S | 0.587 ± 0.3 |
| R513D | 0.928 ± 0.061 |
| R513Y | 1.28 ± 0.17 |
| R513I | 1.44 ± 0.29 |

| Variant | AIRE transcriptional activation functional score |
| --- | --- |
| R513H | 0.0273 ± 0.075 |
| R513T | 1.17 ± 0.29 |
| R513V | 0.873 ± 0.29 |
| R513W | 0.733 ± 0.048 |
| R513M | 1.01 ± 0.11 |
| L516W | 0.496 ± 0.029 |
| L516N | 0.207 ± 0.055 |
| L516R | 0.262 ± 0.2 |
| L516E | -0.232 ± 0.09 |
| L516C | 0.678 ± 0.055 |
| L516P | 0.365 ± 0.53 |
| L516Y | 1.01 ± 0.34 |
| L516D | 0.758 ± 0.17 |
| L516T | 0.362 ± 0.28 |
| L516S | 0.564 ± 0.12 |
| L516V | 0.832 ± 0.27 |
| L516I | 0.97 ± 0.13 |
| L516H | 0.715 ± 0.16 |
| L516G | 0.562 ± 0.066 |
| L516Q | 0.292 ± 0.12 |
| L516F | 1.48 ± 0.15 |
| L516K | 0.259 ± 0.031 |
| L516A | 0.556 ± 0.12 |
